Where a chain is given by its changes, count along the chain named.
B1: HuMab-TF-011-vcMMAE (antibody, IgG1, V domains shown)
VH: EVQLLESGGGLVQPGGSLRLSCAASGFTFSNYAMSWVRQAPGKGLEWVSSISGSGDYTYYTDSVKGRFTISRDNSKNTLYLQMNSLRAEDTAVYYCARSPWGYYLDSWGQGTLVTVSS
VL: DIQMTQSPPSLSASAGDRVTITCRASQGISSRLAWYQQKPEKAPKSLIYAASSLQSGVPSRFSGSGSGTDFTLTISSLQPEDFATYYCQQYNSYPYTFGQGTKLEIK
modifications: vcMMAE drug-linker alkylated to cysteines of the reduced antibody (positions not given)
notes: DAR 3.9 by RP-HPLC, 3.9 by HIC
B2: HuMab-TF-098-mcMMAF (antibody, IgG1, V domains shown)
VH: QVQLVQSGAEVRKPGSSVKVSCKASGGSFNNYPIFWVRQAPGQGFEWMGRIIPILGITAYAQKFQGRVTITADKSTSTAYMELNSLRSEDTAVYYCAGGDDLDAFDIWGQGTMVSVSS
VL: B1 VL with P9S, A15V, R32W
modifications: mcMMAF drug-linker alkylated to cysteines of the reduced antibody (positions not given)
notes: DAR 4.0 by RP-HPLC, 3.9 by HIC
B3: HuMab-TF-011-mcMMAF (antibody, IgG1, V domains shown)
VH: B1 VH
VL: B1 VL
modifications: mcMMAF drug-linker alkylated to cysteines of the reduced antibody (positions not given)
notes: DAR 3.9 by RP-HPLC, 4.1 by HIC
B4: HuMab-TF-098-vcMMAE (antibody, IgG1, V domains shown)
VH: B2 VH
VL: B1 VL with P9S, A15V, R32W
modifications: vcMMAE drug-linker alkylated to cysteines of the reduced antibody (positions not given)
notes: DAR 3.9 by RP-HPLC, 3.7 by HIC
B5: HuMab-TF-111-vcMMAE (antibody, IgG1, V domains shown)
VH: QVQLVESGGGVVQPGRSLRLSCAGSGFTFNRYAMYWVRQAPGKGLDWVAVISNDGINKYYADSVKGRFTISRDNSKNTLYLQMNSLRAEDTAVYYCARDHTMVRGAFDYWGQGTLVTVSS
VL: EIVLTQSPATLSLSPGERATLSCRASQSVSSYLAWYQQKPGQAPRLLIYDASNRATGIPARFSGSGSGTDFTLTISSLEPEDFAVYYCQQRSNWPLTFGGGTKVEIK
modifications: vcMMAE drug-linker alkylated to cysteines of the reduced antibody (positions not given)
notes: DAR 4.3 by RP-HPLC, 4.1 by HIC
B6: HuMab-TF-111-mcMMAF (antibody, IgG1, V domains shown)
VH: B5 VH
VL: B5 VL
modifications: mcMMAF drug-linker alkylated to cysteines of the reduced antibody (positions not given)
notes: DAR 4.1 by RP-HPLC, 4.2 by HIC
B7: Anti-TF HuMab 011 (antibody, IgG1, V domains shown)
VH: B1 VH
VL: B1 VL
notes: full length, fully human monoclonal IgG1,kappa; also called HuMab-TF-011
B8: Anti-TF HuMab 098 (antibody, IgG1, V domains shown)
VH: B2 VH
VL: B1 VL with P9S, A15V, R32W
notes: full length, fully human monoclonal IgG1,kappa; also called HuMab-TF-098
B9: Anti-TF HuMab 111 (antibody, IgG1, V domains shown)
VH: B5 VH
VL: B5 VL
notes: full length, fully human monoclonal IgG1,kappa
B10: HuMab-TF-044 (antibody, V domains shown)
VH: QVQLVESGGGVVQPGRSLRLSCAASGFTFSDYAMHWVRQAPGKGLEWVAVIPYDGDNKYYADSVKGRFTISRDNSKNTLYLQMNSLRAEDTAVYYCAREDWGLEVDYWGQGALVTVSS
VL: AIQLTQSPSSLSASVGDRVTITCRASQGINSALAWYQQKPGKAPKLLIYDASSLESGVPSRFSGSGSGTDFTLTISSLQPEDFATYYCQQFNSYPLTFGGGTKVEIK
B11: HuMab-TF-013 (antibody, V domains shown)
VH: EVQLVQSGAEVKKPGESLKISCKGSGYSFTSYWIGWVRQMPGKGLEWMGIIYPGDSDTRYSPSFQGQVTISADKSISTAYLQWSSLKASDTAMYYCARIHRGAGYSSSWPGAFDIWGQGTMVTVSS
VL: B1 VL with P9S, A15V, S31R, R32W, N92D, Y94D, Y96I, K103R

Target: T1, membrane-bound tissue factor (TF) on cells (human, UniProt P13726 33-295)
Assay: cell-based or functional assay

Row | Binder | % kill at 10 µg/mL, A431 cells, ADC killing assay [%] | % kill at 10 µg/mL, HPAF-II cells, ADC killing assay [%] | % kill at 10 µg/mL, NCI-H441 cells, ADC killing assay [%] | IC50 of cell killing, A431 cells, ADC killing assay [ng/mL] | IC50 of cell killing, HPAF-II cells, ADC killing assay [ng/mL] | IC50 of cell killing, NCI-H441 cells, ADC killing assay [ng/mL]
1 | B1 | 93 | 71 | 60 | 10 | 3 | 10
2 | B2 | 85 | 73 | 63 | 13 | 5 | 4
3 | B3 | 78 | 72 | 53 | 22 | 5 | 5
4 | B4 | 92 | 71 | 60 | 9 | 1 | 10
5 | B5 | 90 | 73 | 51 | 46 | 4 | 416
6 | B6 | 73 | 74 | 62 | 83 | 15 | 416

Target: T2, TFECDHis (extracellular domain of tissue factor, amino acid 1-251, with C-terminal His tag) (human, UniProt P13726 33-251)
T2 construct: range 1-251; The stated range 1-251 starts at residue 1 of the precursor; also called recombinant extracellular domain of TF
Assay: ELISA, coated TFECDHis; lower end of the group's range, tied to 011 unconjugated by Table 7 (373)

Row | Binder | EC50 [ng/mL]
7 | B7 | 370

Target: T2, TFECDHis (extracellular domain of …)
Assay: ELISA, coated TFECDHis
Description: (§1) Binding of the anti-TF ADCs to TF was measured by ELISA (coated recombinant extracellular domain of TF) and compared with binding of unconjugated anti-TF HuMabs. […] ELISA plates were washed three times with PBS containing 0.05% Tween-20 (PBST), blocked with 200 µL/well PBST at RT for 1 h while shaking (300 rpm), washed three times with PBST and emptied. Subsequently, 100 μl anti-TF ADCs or unconjugated anti-TF HuMabs were added in serial dilutions in PBST and incubated while shaking at RT for 90 min. ELISA plates were washed three times with PBST and emptied. […] Plates were washed three times with PBST, emptied and incubated with 100 μL ABTS solution (50 ml ABTS buffer [Roche] and one ABTS tablet [50 mg; Roche]). After incubation in the dark at RT for 30 min, the reaction was stopped by incubation with 100 μL per well oxalic acid (2% [w/v]; Riedel de Haen) in the dark, for 10 min. Plates were measured at OD 405 nm in an ELISA reader (Biotek Instruments, EL808 Absorbance Microplate Reader).
(§2) Binding curves were analyzed by non-linear regression (sigmoidal dose-response with variable slope) using GraphPad Prism 5 software (GraphPad Software, San Diego, CA, USA).

Row | Binder | EC50 [ng/mL]
8 | B8 | 422
9 | B1 | 469
10 | B2 | 401
11 | B7 | 373
12 | B3 | 431
13 | B4 | 426
14 | B9 | 377
15 | B5 | 464
16 | B6 | 416

Target: T1, membrane-bound tissue factor (TF) on …
Assay: FACS, inhibition of binding of 100 nM FVIIa to TF on MDA-MB-231 cells; one representative experiment
Description: MDA-MB-231 cells were washed in PBS to remove serum and plated in 96-well plates (100,000 cells per well). […] Cells were washed with FACS buffer and mean fluorescence intensity (MFI) was measured on a FACSCanto II (Becton Dickinson).

Row | Binder | IC50 [ng/mL]
17 | B8 | 1220
18 | B7 | 647

Target: T2, TFECDHis (extracellular domain of …)
Assay: ELISA, coated TFECDHis; upper end of the group's range, tied to 011-vcMMAE by Table 7 (469)
Description: as §1, §2

Row | Binder | EC50 [ng/mL]
19 | B1 | 470

Target: T1, membrane-bound tissue factor (TF) on …
Assay: cell-based or functional assay
Remark: another data set of the same source

Row | Binder | % kill, A431 cells, anti-kappa-ETA' assay [%] | % kill, BxPC3 cells, anti-kappa-ETA' assay [%] | % kill, MDA-MB-231 cells, anti-kappa-ETA' assay [%] | EC50 of cell killing, A431 cells, anti-kappa-ETA' assay [ng/mL] | EC50 of cell killing, BxPC3 cells, anti-kappa-ETA' assay [ng/mL] | EC50 of cell killing, MDA-MB-231 cells, anti-kappa-ETA' assay [ng/mL]
20 | B10 | 66 | 96 | 44 | 98 | 15 | –
21 | B8 | 95 | 99 | 96 | 0.09 | 0.013 | 0.72
22 | B11 | 80 | 96 | 56 | 20 | 9.4 | –
23 | B7 | 96 | 98 | 88 | 0.39 | 0.26 | 3
24 | B9 | 92 | 98 | 88 | 34 | 15 | 23

From patent US20240294661A1 (Genmab, published 2024)
